# Source: the nanobody polyreactivity screen of Harvey et al. (2022)
# Assay: yeast display, Sf9 membrane polyspecificity reagent, FACS + sequencing; frameworks hold sequencing errors
# Procedure, shortened: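 Nanobodies came from a synthetic yeast display library in Saccharomyces cerevisiae BJ5465, induced with galactose for 36–48 hours and stained for 1 hour at 4 °C with 10% biotinylated, detergent-solubilized Sf9 membrane reagent. Cells were enriched on streptavidin microbeads and then FACS-sorted, with low and high (top ~1%) gates set on anti-HA fluorescence for expression and streptavidin fluorescence for reagent binding. Each polyreactivity label reflects the gate a clone came from. Genes were amplified by colony PCR, sequenced by MiSeq 2 × 250 and filtered by CDR length.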
sequence,measurement,value
QVQLVESGGGLVQEGGSLRISCAASGSIFQSNAMGRYRQAPGKERERVAAISSSGVRTYYADSVKGRFTISRDNAKNTVYLQMNSLKREDTAVYYCATGWYYAGGPTYEYYYWGQGTQVTVSS,polyreactivity (PSR sort gate),low polyreactivity
EVQLGESGGGLVQAGGSLRLSCAASGSTFNTNAMGWYRQAPGKERELVAAISWSSTRTYYADSVKGRFTISRDNAKNTVYLQINSLKPEDTAVYYCAGRSVGGRYFKGNYWGHGTQVTVSS,polyreactivity (PSR sort gate),high polyreactivity
QVQLVESGGGLVQAGGSLRLSCAASGSIFTYNAMGWYRQAPGKERELVAAINTSGSTNYADSVKGRFTISRDNAKNTVYLQMNSLKPEDTAVYYCAAGIVVTGYAYWGQGTQVTVSA,polyreactivity (PSR sort gate),low polyreactivity
QVQLVESGGGLVQAGGSLRLSCAASGSIFLRNAMGWYRQAPGKERELVAAISWGGRTYYADSVKGRFTISRDNAKNTVYLQLNSLKPEDRAVYYCSADGTWVRSPHFYYWGQGTQVTVSS,polyreactivity (PSR sort gate),low polyreactivity
QVQLVESGGGLVQAGGSLRLSCAASGYTFPLYALGWYRQAPGKERELVADINIGGASTYYADSVKGRFTISRDNAKNTVYLQMNSLKPEDTAVYYCAKEYYDGFFPTFDYDYWGQVTQVTVSS,polyreactivity (PSR sort gate),low polyreactivity
QVKLVESGGGLVQAGGSLRLSFPASGRTFKYYAMGLYRQEPGKDRELVAAISWSGGSTYYADSVKGRFTISRDNEKNTVYLQMNSLKPEDTAVYYCAAVRHYHGTWYDYWGQGTQVTVSS,polyreactivity (PSR sort gate),high polyreactivity
QVQLVESGGGLVQAGGSLRLSCAASGRIFRSYAMGWYRQAPGKERELVASISWSGVSTSYADSVKGRFTISRDIAKNTVYLQMNSLKPEDTAVYFCAARSWYVGSGPFNYWGQGTQVTVSS,polyreactivity (PSR sort gate),high polyreactivity
QVQLVESGGGLVQAGGSLRLSCAASGSTFSWYAMGWYRQAPGKERELVASISFSGGDTSYADSVKGRFTISRDNAKNTVYLQMNSLKPEDTEVYYCGKEYKYETDTIFDYWGQGTQVTVSS,polyreactivity (PSR sort gate),low polyreactivity
QVQLVESGGGLVQAGGSLRLSCAASGSIFYYKYAMGWYRQAPGKERELVAAITSTGGTTYYADSVKGRFTISRDNAKNTVYLQMNSLKPEDTAVYYCAALAPYIGGVDYDYWGQGTQVTVSS,polyreactivity (PSR sort gate),low polyreactivity
QVQLVESGGGLVQAGGSLRLSCAASGSTFVRYVMGWYRQAPGKERELVAAIRYRGGSTYYADSVKGRFTISRDNAKNTVYLQMNSLKPEDTAVYYCATDWRRYTKQYGYWGQGTQVSVSS,polyreactivity (PSR sort gate),high polyreactivity
QVQLVESGGGLVQAGGSLRLSCAASGFTFSNNVMGWYRQAPGKERELVADITDSGGDTYYADSVKGRFTISRDNAKNTVYLQMNSLKPEDTAVYYCAARPQHFDLDLAYSGFDYWGQGTQVTVSS,polyreactivity (PSR sort gate),high polyreactivity
QDQLVESGGGLVQAGGSLRLSCAASGITFQYYAMGWYRQAPGKERELVAAITKRGGSTYYADSVKGRFTISRDNAKNTVYLQMKSLKPEDTAVYYCAADYGSWRNYIFLDDYWGQGTQVTVSS,polyreactivity (PSR sort gate),high polyreactivity
QVQLVESGGGLVQAGGSLRLSCAASGSTFDYNAMGWYRQAPGKERELVAAISSGSRTNYADSVKGRFTISRDNAKNTVYLQMNSLKPEDTAVYYCAAKAYFYRRTQSRFSLYYYWGQGTQVTVSS,polyreactivity (PSR sort gate),high polyreactivity
QVLLVESGGGLVQAGGSLRLSCAATARNFKYNTMGWYRQAPGKERELVAAISISGGSTYYADSVKGRFRISRDNSKNTVYLQMNSLKPEDTAVYYCNADTTYLSDYVTFAYWGQVTQVTVSS,polyreactivity (PSR sort gate),low polyreactivity
QVQLVESWGGLVQAGGSLPLSCAASGFTFVSYAMGWSRQAPGKERELVAAISKRGGSTSYADSVKGRFTISRDNAKNTVYLQMNSLKPEDTAVYYCYKRSYAWSPHVDYWGQGTQVTVSS,polyreactivity (PSR sort gate),high polyreactivity
QVQLVESGGGLVQAGGSLRLSCAASGRTFRVNAMGWYRQAPGKERELVASITYSGGSTYYADSVKGRFTISRDNAKNTVYLQMNSLKQEDTAVYYCAADWYRSPYDYWGQGTQVTVSS,polyreactivity (PSR sort gate),low polyreactivity
QVQLVESGGGLVQAGGSLRLSCAASGITFNYNAMGWYRQAPGKERELVARITWSGTRTYYADSVKGRYTISRDNAKNTVYLQMNSLKPEDTAVYYCNADPYARYYWGQGTQVTVSS,polyreactivity (PSR sort gate),high polyreactivity
QVQLVESGGGLVQGGGSLRLSCADSGRTSDGYPMRWYRQATGKERELVAVITEGGGDTYYADSVKGRFTISRDHSKNTVYLKMNSLKPEDSAVYYCNAVEGSRLTYDYWGQGTQVTVSS,polyreactivity (PSR sort gate),low polyreactivity
QVQLVESGGGLVQAGGSLRLSCADSGNTLSYYVMGWYRQAPGKERELVADITSGGTTNYADSVKGRFTISRDNAKNTVYLQMNSLKAEDTAVYYCAAGPYKRPPWLRQGGYDYWGQGTQVTVSS,polyreactivity (PSR sort gate),low polyreactivity
QVQLVESGGGLVQAGGSLRLSSAASGYTFGFYGLGWYRQAPGKERELVAAISRSGGGSTYYADSVKGRFTISRDNAKNSVYLQMNSLKPEDSAVYYCNRDFDDEMWGQGTQVTVSS,polyreactivity (PSR sort gate),low polyreactivity
QVQHVESGGGLVQAGGSLRLSCAASGRTFAWYAMGRYRQAPGKERELVAAISSGGSTYYADSVKGRFTISRDNAKNTVYLQMNSLKPEDTAVYYCAAEWHYIYAYDYWGQGTQVTVSS,polyreactivity (PSR sort gate),low polyreactivity
QEQQQESGGGQLQAGGSLLLSCAASGNIIRYYYMGWYRQAPGKERELVAAITYGTSTNYADSVKGRFTISRDNAKYSVYLQMISLKPEDTAVYYCAVDVNYGDPLDNWGQGTQVTVSS,polyreactivity (PSR sort gate),high polyreactivity
QVQLVESGGGLVQAGGSLRLSCAASGRTFWVYAMGWYRQATGKERELVATISKSAGITSYADSVKGRFTFSRDNAKNTVYLQMNSLKPEDTAVFYCAADKSYRRVYYWGQGTQVTVSS,polyreactivity (PSR sort gate),low polyreactivity
QVQLVESGGGLVQAGGSLRLSCAASGSTFLLYAMGWYRQEPGKERELVAAITWSGASTYYADSVKGRFTISRDNAKNTVYLQMNSLKPEDTAVYYCATRYRYRYWGQGTQVTVSS,polyreactivity (PSR sort gate),high polyreactivity
QVQLVESGGGLVQAGGSLRLSCAASGRTFSRYAMGWYRQAPGKERELVAAITYSGGRTYYADSVKGRFTISRDNAKNTVYLQMNSLKPEDTAVYYCAKGTTSDPGYGYWGQGTQVTVSS,polyreactivity (PSR sort gate),low polyreactivity
QVQRVESGGGLVQAGGSLRLSCAASGTIFYHNAMGWYRQAPGIERELVAAITGSGGSTYYADSVKGRFTISRDNAKNTVYLQMNSLKPEDTAVYYCAADGYTKWRISWGYDYWGQGTQVTVCS,polyreactivity (PSR sort gate),low polyreactivity
QVQLVESGGGLVQAGGSLRLSCAASGNIFDHYAMGWYRQAPGKERELVASITDSGDSTSYADSVKGRFTISRDNAKNTVYLQMNSLKPEDTAVYYCAADPYSVYGGDYWGQGTQVTVSS,polyreactivity (PSR sort gate),low polyreactivity
QVQLVESGGGLVQAGGSLRLSCAASGRIFRRNAMGWSRQAPGNERELVAAISSSGGRTYYADSVKGRFTISRDNAKNTVYLEMNSLKPEDTAVYYCAARIRTVAHVDYDYWGQGTQVTVSS,polyreactivity (PSR sort gate),high polyreactivity
QVQLVESGGGIVQAGGSLRLICAASGFIFVTYAMGWYRQAPGKETELVAAITNSGGTTYYADSVKGRFTISRDNAKNTVYLQMNSLKPEDTAVYYCAADVWTPYLISLKSGYDYWGQGTQVTVSS,polyreactivity (PSR sort gate),low polyreactivity
QVQLVESGGGLVQAGGRLRLSCAASGYIFSRYAMGWYRQAPGKERELVAAISKSGSSTYYADSVKGRFTISRDNAKNTVYLQMNSLKPEDTAVYYCATSYSVGYDYWGQGTQVTVSS,polyreactivity (PSR sort gate),high polyreactivity
QVQLVESGGGLVQAGGSLRLSCDASGSIFDGYGMGWYRQAPGKERELVASITWNDGSTYYADSVKGRFTISRDNAKNTVYLQMNSLKPEETAVYYCAADQWGYEYDYWGQGTQVTVSS,polyreactivity (PSR sort gate),low polyreactivity
QVQLVESGGGLVQAGGSLRLSCAASGRTFAYNAMGWYRQAPGKERELVAAISRRGGSTFYADSVKGRFTISRDNAKNTVYLQMNSLKPEDTAVYYCARDSYYIGRWLYYWGQGTQVTVSS,polyreactivity (PSR sort gate),high polyreactivity
QVQLVESGGGLVQAGGSLRLSCAASGRTFYDYDMGWYRQAPGKERELVATIRRDGSTYYADSVKGRFTISRDNAKNTVYLQMNSLKPEDTAVYYCAKDGGYPLDEPEFDYWGQGTQVTVSS,polyreactivity (PSR sort gate),low polyreactivity
QVQLVESGGGLVQAGGSLRLSCAASGITFRSYAMGWYRQAPGKERELVAAITSGASTNYADSVKGRFTISRDNAKNTVYLQMNSLKPEDTAVYYCAATYHTWRGQYLWYDYWGQGTQVTVSS,polyreactivity (PSR sort gate),low polyreactivity
QVQLVESGGGLVQAGGSLRLSCAASGRIFRINGMGWYRQAPGKEREFVAAITSGGGTYYADTVKGRFTISRDNAKNTVYLQMNSLKPEDTAVYYCAAPSYRTRYYYWGQGTQVTVSS,polyreactivity (PSR sort gate),high polyreactivity
QVQLVESGGGLVQAGGSLRLSCAASGFIIPDYAMGWYRQAPVKERELVAAITSSGGRTYYADSVKVRFTISRDNAKNTVYLQMNSLIPEDTAVYYCAARTNSPRGYGSDYWGQGTQVTVSS,polyreactivity (PSR sort gate),high polyreactivity
QVQLVESGGGLVQAGGSLRLSCAASGRTFYLNVMGWYRQAPGKEREFVASISTTGGSTYYADSVKGRFTISRDNAKNTVYLQMNSLKPDDTAVYYCAASLRYWARNYWGQGTQVTVSS,polyreactivity (PSR sort gate),high polyreactivity
QVQLVESGGGLVQAGGSLRLSCAASGSIFYYAMGWYRQAPGKERELVATISASGGSTYYADSVKGRFTISRDNEKNTVYLQMNSLKAEDTAVYYCAVRYKSWYGFNYWGQGTQVTVSS,polyreactivity (PSR sort gate),high polyreactivity
QVQLVESGGGLVQAGGSLRLSCAASGSIFLYYAMGWYRQAPGKERELVAAISQNGGSTYYADSVKGRFTISRDNAKNTVYLQMNSLKPEDTAVYYCNKYSFALRYDYWGQGTQVTVSS,polyreactivity (PSR sort gate),low polyreactivity
HSAVGLVQAGVRHPLSCAASGRMFKYNAMRWYRQAPGKERELVAAISYSGGSTYYADSVKGRFTISRDNEMYTVYLQMNSLKPEDTAVYYCAKATSTREPKYGYWGQGTHVTVSS,polyreactivity (PSR sort gate),high polyreactivity
QVQHVESGGRLVQAGGILRLSCAASGRIFQSNAMGWYRQTPGKERELVAGITKRGGSTYYADSVKGRFTISLDYAKNTVYLQMNSLTPEDTAVYYCAKSWSYDPRYGSWGQGTQVTVSS,polyreactivity (PSR sort gate),high polyreactivity
QVQLVESGGGLVQAGGSLRLSCAASGNTFTFYAMGWYRQAPGKERELVASITGRGGSTYYADSVKGRFTISRDNAKNTVYLQMNSLKPEDTAVYYCNADYNSYRYRPPTTRDYWGQGTQVTVSS,polyreactivity (PSR sort gate),low polyreactivity
QVQLVESGGGLVQAGGSLRLSCAASGIIFRYYAMGWYRQAPGKERELVAGISYRGGSTYYADSVKGRFTISRDNAKNTVYLQMNSLKPEDTAVYYCAAVVYPRNYWGQGTQVTVSS,polyreactivity (PSR sort gate),high polyreactivity
